# Measured values reported in the RNAGym collection of RNA variant scans (doi:10.1073/pnas.2313332121).
# B1: TPR t1 (parent)
# chain: GACCAAUCUGCCCUCAGAGCUCGAGAACAUCUUCGGAUGCAGAGGAGGCAGGCUUCGGUGGCGCGAUAGCGCCAACGUCCUCAACCUCCAAUGCAUCCCACCACAUGAUGAUGCCUGAAGAGCCUUGGUUUUUUG
# Variants of: B1
# Assay: polymerase ribozyme fitness, log enrichment relative to wild type (log ratio); higher = more active; in vitro selection for triplet polymerase activity
# In short: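 Mutant libraries were PCR-built and transcribed for each subunit of a heterodimeric triplet polymerase ribozyme and selected for one round in triplicate at −7 °C, frozen, before gel excision of extended constructs and streptavidin-bead capture. Input and output libraries were Illumina-sequenced, keeping genotypes with ≥10 input reads and ≥1 read per output. Fitness is a logarithmic ratio of genotype to wild-type enrichment, in base 2, using inverse-variance-weighted replicate averages.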
row,Variant,polymerase ribozyme fitness (log ratio)
1,A5U C73U G122A U129A,-2.07
2,A5U C80G,-5.2
3,A5U C85A C88U A100U A111G,-2.1
4,A5U C97G C115U G127A,-6.94
5,A5U C102A,-2.01
6,A5U C102U G122A,-3.47
7,A5U C104U U112A G120U,-0.575
8,A5U C115U,-1.6
9,A5U G10A A41G G61A C101U U133G,-0.742
10,A5U G10A C11A C72G G110A,-1.86
11,A5U G10A C15A C70U C79A C94U C99U C124U,-7.66
12,A5U G17C A18U C20U A46C U59A A121G G127C,-5.48
13,A5U G17C G23A C115G U131C,-5.42
14,A5U G19A A41U C94A C104U,-3.89
15,A5U G19A C40A A111G,-2.76
16,A5U G19A G69U C72G U112G,-3.83
17,A5U G35C,-4.38
18,A5U G35U,-5.72
19,A5U G36C,-1.42
20,A5U G44A A46U C56U U126G U133A,-2.99
21,A5U G44A C56A C124A G128U U132G U133C,-2.5
22,A5U G44C,-1.05
23,A5U G45U A46C,-1.71
24,A5U G47A C101U,-1.94

row,Variant,polymerase ribozyme fitness (log ratio)
1,A5U G47U,-1.29
2,A5U G51A G113A C124A,-3.34
3,A5U G51U,-3.03
4,A5U G57A G63U U78C A95C C115A,-3.19
5,A5U G60C U96A C101A A119U,-2.53
6,A5U G69C,-2.22
7,A5U G110A,-1
8,A5U G117C,-2.92
9,A5U G127U,-2.48
10,A5U U7A C15A G44A C56A G60A,-3.35
11,A5U U7A C40G U55G C56U G60A U130C,-1.94
12,A5U U7G G47A C72A,-0.365
13,A5U U9A,-0.246
14,A5U U38G A74G,-1.15
15,A5U U54C G69A U112C,-0.469
16,A5U U54G,-0.237
17,A5U U55G A95U U129G,-1.03
18,A5U U130G,-0.49
19,A5U U131A,-2.48
20,A6C,-0.236
21,A6C A16U C70U C104A,-4.73
22,A6C A18C G60U C82G G127U,-5.44
23,A6C A26G U38G C53G,-5.37
24,A6C A37C A111U,-3.49

row,Variant,polymerase ribozyme fitness (log ratio)
1,A6C A41C C94A U129G,-4.39
2,A6C A50C U59C C72U U92G,-4.39
3,A6C A100U,-0.814
4,A6C C8G C72A,0.431
5,A6C C8G U92G A121C C123G,0.289
6,A6C C11A,-2.65
7,A6C C11G G36U C40G U106A U130A,-4.89
8,A6C C11U C49A C101A,-2.17
9,A6C C11U G69A A91C,-6.12
10,A6C C12A U54G,-1.08
11,A6C C12U A46G A118G,0.142
12,A6C C13A A37U C82U,-2.7
13,A6C C15G U55G C94G C124G G127A,-3.17
14,A6C C15U C70U C101A U130G,-4.08
15,A6C C22U C62U C79U C99U,-5.96
16,A6C C40U G44A A121U,0.36
17,A6C C53G,-0.863
18,A6C C53G C72A C123U U133C,0.968
19,A6C C53G G57A C73A C79G G113C,-4.89
20,A6C C53G G69U,0.253
21,A6C C53U A74G C80U A118G,-1.6
22,A6C C62G,-2.28
23,A6C C70U C73G,-2.81
24,A6C C70U U129A,-2.82

row,Variant,polymerase ribozyme fitness (log ratio)
1,A6C C73G,-0.957
2,A6C C73G G93U G128U,-5.16
3,A6C C76G U81C C85U C99U,-5.11
4,A6C C82U,-0.547
5,A6C C85U C101U G110U,-3.01
6,A6C C88G C115G,-4.52
7,A6C C114U,-2.3
8,A6C G10A C15A G25A A43U G45C C86G U106G G113U,-7.45
9,A6C G10A U30C G71A,-5.5
10,A6C G10C G36U,-2.24
11,A6C G17U U96G C98U C123U,-6.92
12,A6C G35A,-4.12
13,A6C G35U A83U C98G A121U,-4.12
14,A6C G36A A66G C72G C76U U78A,-4.1
15,A6C G39U G63A,-1.63
16,A6C G44A G61U,-0.646
17,A6C G47A C86U U133G,-0.584
18,A6C G47A C123U U125A,-0.223
19,A6C G48A G71U C82A,-1
20,A6C G52A U81C A121C C123A,-0.955
21,A6C G52U G63A,-0.684
22,A6C G57A C62G G120C,-4.68
23,A6C G71A G93C C99U C123A U130A,-7.12
24,A6C G77A,-0.571

row,Variant,polymerase ribozyme fitness (log ratio)
1,A6C G93C A121G G127C,0.208
2,A6C G113A,-1.23
3,A6C U7G A29G G48C G61A A95C,-2.21
4,A6C U7G C22G G58U A95G C104A G120C,-3.33
5,A6C U9A C15G G45A C62U C104A C124G,-3.99
6,A6C U9A C15G G45A C104A C124G,-3.65
7,A6C U9G,-0.665
8,A6C U38A A43U,-3.16
9,A6C U54G C62U U92G,-4.44
10,A6C U78A,0.00944
11,A6C U78A C94G U106G,-3.64
12,A6C U78C A100U G120A U131C,-0.187
13,A6C U131A,-0.317
14,A6G,0.335
15,A6G A18G U129A U133A G135U,-5.44
16,A6G A18U,-1.31
17,A6G A24G G36U C49A,-3.79
18,A6G A37U C72A C73U G117U C124A,-0.937
19,A6G A41G U87A G110A U125G,-3.92
20,A6G A41U C70U C124A,-0.611
21,A6G A46C C49A C53A U55C G127U,-3.07
22,A6G A50C C70G,-3
23,A6G A66U C73G A75U C80U G120U U129G,-4.99
24,A6G A121C,2.2

row,Variant,polymerase ribozyme fitness (log ratio)
1,A6G C8A,-0.14
2,A6G C8A U9G,0.0967
3,A6G C8A U55A,0.109
4,A6G C8G G10U C76A G117C C124A,-2.05
5,A6G C8G U30C A41G G60U,-3.67
6,A6G C11G C12U C40G G44U G93A,-2.75
7,A6G C11G G17C G36C C97U,-5.22
8,A6G C11G G57U,0.178
9,A6G C11U,-0.107
10,A6G C11U A29G G52A C76A C85A U125G,-5.55
11,A6G C12A A50G G120A,2.01
12,A6G C12A G117A,-2.34
13,A6G C12U,-0.282
14,A6G C13A G17A A95G,-3.46
15,A6G C13U C22U G44C,-5.6
16,A6G C13U C102U G122A,-2.62
17,A6G C34A,-2.05
18,A6G C49G G51U C73G U133A,-2.49
19,A6G C49U G60C G135U,-2.21
20,A6G C56A G69U C104U,-0.478
21,A6G C62A,-0.491
22,A6G C62U U129C,-0.185
23,A6G C70A C97U,-1.59
24,A6G C76A C79A G120C,0.0381

row,Variant,polymerase ribozyme fitness (log ratio)
1,A6G C97U U112A,1.48
2,A6G C101A C115G,-1.96
3,A6G G10A C11U G61A A100U G128A,-2.69
4,A6G G10U A43C G71A,-4.79
5,A6G G10U C56U C94U G135U,-1.99
6,A6G G19A A43U C123A G128A,-5.55
7,A6G G47A C53U U59C,-1.37
8,A6G G47U G71A,-2.24
9,A6G G48A G69A U129G,-5.25
10,A6G G48C C72A,0.333
11,A6G G48U G52C C73G,-3.58
12,A6G G48U U54A C79U U87A,-4.01
13,A6G G51A A75U C88G U92C,-6.38
14,A6G G61C C79A U112G C114U,-6.62
15,A6G G63U C73G C102A G110U C115G,-6.75
16,A6G G69A C115A G120A,-1.22
17,A6G G71A G120C,0.128
18,A6G G71C A118U,-0.254
19,A6G G113A,-0.703
20,A6G U7G A18C G52U U81A C115G,-4.51
21,A6G U7G A37G G48U,0.0457
22,A6G U21C G61C C114A,-3.62
23,A6G U54C A66G C80U,-2.2
